We go through 1 protein from article PMC6467514.

In general, Km refers to the concentration of substrate that gives half-maximal velocity.

Substrate in data set [1]: Nc1ncnc2c1ncn2[C@@H]1O[C@H](CO)[C@@H](O)[C@H]1O
In words: stopped-flow absorbance Michaelis-Menten kinetics. It is filed as biochemical, Bos taurus.

Substrate in data set [2]: Nc1ncnc2c([C@@H]3O[C@H](CO)[C@@H](O)[C@H]3O)snc12
In words: stopped-flow fluorescence Michaelis-Menten kinetics. It is filed as biochemical, Bos taurus.

B1: adenosine deaminase (ADA) (Bos taurus) (protein)
chain: AQTPAFNKPKVELHVHLDGAIKPETILYYGRKRGIALPADTPEELQNIIGMDKPLSLPEFLAKFDYYMPAIAGCREAVKRIAYEFVEMKAKDGVVYVEVRYSPHLLANSKVEPIPWNQAEGDLTPDEVVSLVNQGLQEGERDFGVKVRSILCCMRHQPSWSSEVVELCKKYREQTVVAIDLAGDETIEGSSLFPGHVKAYAEAVKSGVHRTVHAGEVGSANVVKEAVDTLKTERLGHGYHTLEDATLYNRLRQENMHFEVCPWSSYLTGAWKPDTEHPVVRFKNDQVNYSLNTDDPLIFKSTLDTDYQMTKNEMGFTEEEFKRLNINAAKSSFLPEDEKKELLDLLYKAYGMPSPASAEQCL
With B1, the Km in data set [1] was 25.1 ± 3.2 µM; in data set [2] it was 18.8 ± 3.2 µM.
